Earlier results in publication PMC11784315.

Target: Spike S1 S1 (Severe acute respiratory syndrome coronavirus 2) (UniProt P0DTC2)

Chain of DC-SIGN (Q9NNX6 whole entry): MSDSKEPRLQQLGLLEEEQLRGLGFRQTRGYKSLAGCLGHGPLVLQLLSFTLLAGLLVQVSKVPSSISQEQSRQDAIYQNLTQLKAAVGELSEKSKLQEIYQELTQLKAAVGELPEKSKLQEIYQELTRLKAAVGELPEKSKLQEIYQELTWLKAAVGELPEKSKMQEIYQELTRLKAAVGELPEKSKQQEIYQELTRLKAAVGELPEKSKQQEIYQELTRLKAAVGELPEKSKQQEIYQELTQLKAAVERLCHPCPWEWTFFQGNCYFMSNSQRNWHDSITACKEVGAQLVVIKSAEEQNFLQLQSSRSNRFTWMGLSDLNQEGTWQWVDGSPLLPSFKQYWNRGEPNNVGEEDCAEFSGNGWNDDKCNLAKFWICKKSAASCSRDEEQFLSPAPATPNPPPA

DC-SIGN (from UniProt Q9NNX6)
Kd: 420 nM
